In the supplement of paper PMC10724198:
± gives the standard deviation of the averaged measurements.

Tested on: Saccharomyces cerevisiae
Assay: protein stability index of tFT-peptide fusion (C-terminal peptide) (PSI (0-1 scale)); higher = more stable (slower turnover)
Details: genetic background: wild type; temperature: 30 C
Description: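 MPS profiling in S. cerevisiae of the yeast C-terminome library: the last 12 aa of each annotated ORF are fused to the C-terminus of a sfGFP-mCherry timer, after a GGGS linker. Cells are FACS-sorted into 8 mCherry/sfGFP bins and deep-sequenced. PSI runs from 0 (unstable) to 1 (stable); wild type and das1Δ backgrounds, two technical replicates each.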

**Q.** How did the protein stability index turn out when DGITLDMPLFEF [AOS1 C-terminal 12 aa] was run?
**A.** 0.731 ± 0.047

**Q.** Which protein stability index does the source give for DHMQLTGRILVL [YJL132W C-terminal 12 aa] here?
**A.** 0.5716 ± 0.0024

**Q.** With DHQVDFLGNKIL [YLR463C C-terminal 12 aa] as the sequence, how does the protein stability index read?
**A.** 0.715 ± 0.022

**Q.** For DHSNAFESILIF [TRS130 C-terminal 12 aa], which protein stability index is on record?
**A.** 0.684 ± 0.093

**Q.** DIPSEEGTKVIL [BSC3 C-terminal 12 aa] was tested. Which protein stability index did it give?
**A.** 0.691 ± 0.011

**Q.** For DKELDSTFDTFG [MIF2 C-terminal 12 aa], which protein stability index is on record?
**A.** 0.699 ± 0.023

**Q.** How did the protein stability index turn out when DKEWTNYATHIG [AYT1 C-terminal 12 aa] was run?
**A.** 0.701 ± 0.013

**Q.** How did the protein stability index turn out when DKIQDARNSSTK [MHP1 C-terminal 12 aa] was run?
**A.** 0.702 ± 0.041

**Q.** Which protein stability index does the source give for DKYLCMLKTCVF [NUT1 C-terminal 12 aa] here?
**A.** 0.517 ± 0.021

**Q.** With DLVRTDQLCPNY [CQD1 C-terminal 12 aa] as the sequence, how does the protein stability index read?
**A.** 0.682 ± 0.035

**Q.** For DNDNDDDIDSDN [RUP1 C-terminal 12 aa], which protein stability index is on record?
**A.** 0.6853 ± 0.0067

**Q.** With DNFRERYFNNFN [TRM11 C-terminal 12 aa] as the sequence, how does the protein stability index read?
**A.** 0.6816 ± 0.0054

**Q.** For DNGELDLSGFNI [MED2 C-terminal 12 aa], which protein stability index is on record?
**A.** 0.734 ± 0.073

**Q.** How did the protein stability index turn out when DNQSLPNSEKIK [CST6 C-terminal 12 aa] was run?
**A.** 0.7044 ± 0.0021

**Q.** For DQPFYKKMFGKK [HXT3 C-terminal 12 aa], which protein stability index is on record?
**A.** 0.698 ± 0.042

**Q.** For DRIESSSGRISW [SPC110 C-terminal 12 aa], which protein stability index is on record?
**A.** 0.681 ± 0.028

**Q.** With DSEIEMLKGRLQ [EPO1 C-terminal 12 aa] as the sequence, how does the protein stability index read?
**A.** 0.694 ± 0.026

**Q.** For DSELGCCCCFFN [EDS1 C-terminal 12 aa], which protein stability index is on record?
**A.** 0.696 ± 0.018

**Q.** With DSIADEFSSLYF [SPR6 C-terminal 12 aa] as the sequence, how does the protein stability index read?
**A.** 0.721 ± 0.046

**Q.** Which protein stability index does the source give for DSPDFKKHLEKK [RSM10 C-terminal 12 aa] here?
**A.** 0.721 ± 0.046

**Q.** With DSTVLDFVESIS [HER2 C-terminal 12 aa] as the sequence, how does the protein stability index read?
**A.** 0.694 ± 0.06

**Q.** DTGNTIKCEFIL [ERG29 C-terminal 12 aa] was tested. Which protein stability index did it give?
**A.** 0.699 ± 0.017

**Q.** With DTTFPQDQHDID [PUT7 C-terminal 12 aa] as the sequence, how does the protein stability index read?
**A.** 0.629 ± 0.059

**Q.** For DVETRVQNLEQT [DPB4 C-terminal 12 aa], which protein stability index is on record?
**A.** 0.699 ± 0.013

**Q.** DVIDTIMSKQEP [UGA4 C-terminal 12 aa] was tested. Which protein stability index did it give?
**A.** 0.6826 ± 0.0027

**Q.** Which protein stability index does the source give for DWAPGKQLEMNH [JAC1 C-terminal 12 aa] here?
**A.** 0.743 ± 0.042

**Q.** For EAADEADEADEE [RPS9A C-terminal 12 aa], which protein stability index is on record?
**A.** 0.747 ± 0.017

**Q.** How did the protein stability index turn out when EAEQTKAPKIQI [TMC1 C-terminal 12 aa] was run?
**A.** 0.701 ± 0.012

**Q.** With EAHREQIGGATY [SMT3 C-terminal 12 aa] as the sequence, how does the protein stability index read?
**A.** 0.676 ± 0.011

**Q.** How did the protein stability index turn out when EAVDRIVSHDEL [SEC20 C-terminal 12 aa] was run?
**A.** 0.6744 ± 0.00081

**Q.** How did the protein stability index turn out when ECRKKNYFKCKH [ATG39 C-terminal 12 aa] was run?
**A.** 0.187 ± 0.0042

**Q.** Which protein stability index does the source give for EDAFLKDVFQQS [KGD1 C-terminal 12 aa] here?
**A.** 0.782 ± 0.093

**Q.** With EDESLNSSRSTT [RCF3 C-terminal 12 aa] as the sequence, how does the protein stability index read?
**A.** 0.691 ± 0.013

**Q.** EDGVGDPREEDE [RAD51 C-terminal 12 aa] was tested. Which protein stability index did it give?
**A.** 0.6258 ± 0.0013

**Q.** With EDITVQVPDTPT [EST1 C-terminal 12 aa] as the sequence, how does the protein stability index read?
**A.** 0.674 ± 0.017

**Q.** For EDPDFLQHALQS [GRX3 C-terminal 12 aa], which protein stability index is on record?
**A.** 0.704 ± 0.013

**Q.** How did the protein stability index turn out when EDSSDSSDSDSD [BDF2 C-terminal 12 aa] was run?
**A.** 0.675 ± 0.068

**Q.** With EEDIFYRNQVVF [YKR075C C-terminal 12 aa] as the sequence, how does the protein stability index read?
**A.** 0.777 ± 0.059

**Q.** With EEDPEYFQHALQ [GRX4 C-terminal 12 aa] as the sequence, how does the protein stability index read?
**A.** 0.715 ± 0.049

**Q.** EEEKRHGIYLKC [GUP1 C-terminal 12 aa] was tested. Which protein stability index did it give?
**A.** 0.647 ± 0.019

**Q.** EEFNKQLKDIEA [YOR289W C-terminal 12 aa] was tested. Which protein stability index did it give?
**A.** 0.661 ± 0.017

**Q.** How did the protein stability index turn out when EEGQTQPEEESA [BUR6 C-terminal 12 aa] was run?
**A.** 0.692 ± 0.033

**Q.** Which protein stability index does the source give for EERDRRRAQQGL [RPS4A C-terminal 12 aa] here?
**A.** 0.692 ± 0.05

**Q.** EFDDYESRMHGI [EAR1 C-terminal 12 aa] was tested. Which protein stability index did it give?
**A.** 0.694 ± 0.0086

**Q.** EGEDEELDIDDI [TIF11 C-terminal 12 aa] was tested. Which protein stability index did it give?
**A.** 0.6717 ± 0.0065

**Q.** With EGIETTHNKRIR [AMA1 C-terminal 12 aa] as the sequence, how does the protein stability index read?
**A.** 0.666 ± 0.036

**Q.** With EGKWEPAGEVHQ [SEC13 C-terminal 12 aa] as the sequence, how does the protein stability index read?
**A.** 0.7167 ± 0.0048

**Q.** EGVVLGQRRDIV [SCP1 C-terminal 12 aa] was tested. Which protein stability index did it give?
**A.** 0.672 ± 0.0097

**Q.** How did the protein stability index turn out when EHLWNCFFHGSD [IRC20 C-terminal 12 aa] was run?
**A.** 0.731 ± 0.061

**Q.** Which protein stability index does the source give for EHVGKQCGYKYH [STP3 C-terminal 12 aa] here?
**A.** 0.7096 ± 0.0013

**Q.** For EIFNDFSKRCCF [CDC43 C-terminal 12 aa], which protein stability index is on record?
**A.** 0.73168 ± 0.00037

**Q.** With EIMLGKNLLITS [YNL109W C-terminal 12 aa] as the sequence, how does the protein stability index read?
**A.** 0.503 ± 0.028

**Q.** How did the protein stability index turn out when EIVRNFSLFNMV [ARP3 C-terminal 12 aa] was run?
**A.** 0.6866 ± 0.0035

**Q.** For EKANDIGFNKFR [RPS29A C-terminal 12 aa], which protein stability index is on record?
**A.** 0.7106 ± 0.006

**Q.** Which protein stability index does the source give for EKDNSQKIEAKK [SDH4 C-terminal 12 aa] here?
**A.** 0.697 ± 0.11

**Q.** Which protein stability index does the source give for EKEALWKFAKRL [ATP10 C-terminal 12 aa] here?
**A.** 0.3037 ± 0.00067

**Q.** With EKKYLNQSQNQA [BSD2 C-terminal 12 aa] as the sequence, how does the protein stability index read?
**A.** 0.692 ± 0.059

**Q.** With EKLISLSQSMEN [ATP11 C-terminal 12 aa] as the sequence, how does the protein stability index read?
**A.** 0.785 ± 0.11

**Q.** Which protein stability index does the source give for EKVTNTLSSLKF [LTV1 C-terminal 12 aa] here?
**A.** 0.669 ± 0.017

**Q.** How did the protein stability index turn out when ELAKKWKQEQAL [CLF1 C-terminal 12 aa] was run?
**A.** 0.667 ± 0.011

**Q.** With ELFTILHDLTAA [TPS3 C-terminal 12 aa] as the sequence, how does the protein stability index read?
**A.** 0.6612 ± 0.005

**Q.** With ELPSYKKTSKQN [PSG1 C-terminal 12 aa] as the sequence, how does the protein stability index read?
**A.** 0.701 ± 0.077

**Q.** Which protein stability index does the source give for ELSMIMEHFSQQ [RPS12 C-terminal 12 aa] here?
**A.** 0.7056 ± 0.0036

**Q.** Which protein stability index does the source give for ELTLFLSYKSYS [YGR045C C-terminal 12 aa] here?
**A.** 0.64 ± 0.017

**Q.** ELTRLVDSKRKR [HFA1 C-terminal 12 aa] was tested. Which protein stability index did it give?
**A.** 0.667 ± 0.011

**Q.** For ELWTLQAPELNL [YKL036C C-terminal 12 aa], which protein stability index is on record?
**A.** 0.702 ± 0.04

**Q.** For “ENAGKIFFNETE [YHR213W-A C-terminal 12 aa]”, which protein stability index is on record?
**A.** 0.684 ± 0.033

**Q.** Which protein stability index does the source give for ENKPDSTFGIIL [YOR170W C-terminal 12 aa] here?
**A.** 0.749 ± 0.11

**Q.** Which protein stability index does the source give for ENLITILDSNYI [ISR1 C-terminal 12 aa] here?
**A.** 0.696 ± 0.01

**Q.** ENLTQKKKQSAN [PCT1 C-terminal 12 aa] was tested. Which protein stability index did it give?
**A.** 0.65 ± 0.011

**Q.** For ENRPGPYEFRET [FMP41 C-terminal 12 aa], which protein stability index is on record?
**A.** 0.779 ± 0.053

**Q.** How did the protein stability index turn out when EPKEIVDGKVLK [CAM1 C-terminal 12 aa] was run?
**A.** 0.708 ± 0.034

**Q.** With EPTLKLSNIYRQ [YBR174C C-terminal 12 aa] as the sequence, how does the protein stability index read?
**A.** 0.71982 ± 0.00048

**Q.** With EQDAILLKKHIS [NAT5 C-terminal 12 aa] as the sequence, how does the protein stability index read?
**A.** 0.3 ± 0.029

**Q.** For ERAIKTVRYLLY [YOL079W C-terminal 12 aa], which protein stability index is on record?
**A.** 0.631 ± 0.021

**Q.** How did the protein stability index turn out when ERKLSTKKVSVE [YHR078W C-terminal 12 aa] was run?
**A.** 0.7 ± 0.032

**Q.** ERTKLREKLEII [PXA1 C-terminal 12 aa] was tested. Which protein stability index did it give?
**A.** 0.677 ± 0.077

**Q.** For ESDLAAARSEDK [VTH1 C-terminal 12 aa], which protein stability index is on record?
**A.** 0.659 ± 0.012

**Q.** Which protein stability index does the source give for ESEKELYNATRA [NHP6B C-terminal 12 aa] here?
**A.** 0.716 ± 0.034

**Q.** Which protein stability index does the source give for ESNSALDFTRLA [SSU1 C-terminal 12 aa] here?
**A.** 0.712 ± 0.059

**Q.** Which protein stability index does the source give for ESQPAPKEAPDY [SNP1 C-terminal 12 aa] here?
**A.** 0.702 ± 0.022

**Q.** How did the protein stability index turn out when ETLEAETVKIDI [POL31 C-terminal 12 aa] was run?
**A.** 0.7012 ± 0.0013
